Data reported in patent publication US20060172377, “Site-specific serine recombinases and methods of their use” (published 2006).

Experiments:
Conditions in all cases: chain copies: 4
Bxb1 recombinase = biological target: T1, Bxb1 recombinase (Mycobacterium smegmatis phage Bxb1); assay: cell_activity; partner of N5, NIH3T3; chromosomal integration also seen (Tables 1-2)
T1 chain: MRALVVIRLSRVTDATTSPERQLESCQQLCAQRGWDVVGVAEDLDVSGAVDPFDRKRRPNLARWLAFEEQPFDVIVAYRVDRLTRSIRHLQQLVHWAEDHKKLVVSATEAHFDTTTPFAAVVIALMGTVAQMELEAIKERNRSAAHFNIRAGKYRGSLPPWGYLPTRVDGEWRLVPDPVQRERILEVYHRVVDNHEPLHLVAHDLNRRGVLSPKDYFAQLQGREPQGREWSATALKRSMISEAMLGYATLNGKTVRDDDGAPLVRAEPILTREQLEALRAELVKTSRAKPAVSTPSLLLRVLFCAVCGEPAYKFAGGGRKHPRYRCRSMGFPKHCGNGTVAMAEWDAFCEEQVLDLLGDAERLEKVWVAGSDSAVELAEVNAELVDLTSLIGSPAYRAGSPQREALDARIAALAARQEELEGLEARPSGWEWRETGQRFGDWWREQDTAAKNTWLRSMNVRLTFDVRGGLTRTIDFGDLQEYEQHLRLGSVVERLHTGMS
Procedure: Cells were maintained at 37° C. and 5% CO₂ in DMEM supplemented with 10% fetal bovine serum and 1% penicillin/streptomycin (obtained from Invitrogen, Carlsbad, Calif.) or in other media as indicated. On the day of transfection, cells were plated at different densities depending on the cell type used. The cells were transfected with intramolecular recombination assay plasmid alone or along with varying amounts of recombinase expression plasmid DNA using Lipofectamine 2000™ according to the manufacturers instructions (Invitrogen, Carlsbad, Calif.). Constitutively expressed Renilla luciferase reporter plasmid (pRL-CMV from Promega, Madison, Wis.) was co-transfected (2 ng/well) and used as an internal control to normalize the data. Twenty-four or forty-eight hours after transfection (depending on the cell line), media was discarded and cells were lysed with passive lysis buffer (Promega, Madison, Wis.). Extracts were then assayed using Dual Luciferase Assay kit (Promega, Madison, Wis.) on a plate reader equipped with injectors (Dynex Technologies, Chantilly, Va.). The data shown are the ratios of luciferase (Luc) and Renilla luciferase (RLuc) activities, unless noted otherwise. Similar results were observed when Luc activities (relative light units) were compared (data not shown). […]

A118 recombinase [1] = biological target: T2, A118 recombinase (Listeria monocytogenes phage A118); assay: cell_activity; partner of N7, tobacco BY2 protoplasts; chromosomal integration also seen (Tables 1-2)
T2 chain: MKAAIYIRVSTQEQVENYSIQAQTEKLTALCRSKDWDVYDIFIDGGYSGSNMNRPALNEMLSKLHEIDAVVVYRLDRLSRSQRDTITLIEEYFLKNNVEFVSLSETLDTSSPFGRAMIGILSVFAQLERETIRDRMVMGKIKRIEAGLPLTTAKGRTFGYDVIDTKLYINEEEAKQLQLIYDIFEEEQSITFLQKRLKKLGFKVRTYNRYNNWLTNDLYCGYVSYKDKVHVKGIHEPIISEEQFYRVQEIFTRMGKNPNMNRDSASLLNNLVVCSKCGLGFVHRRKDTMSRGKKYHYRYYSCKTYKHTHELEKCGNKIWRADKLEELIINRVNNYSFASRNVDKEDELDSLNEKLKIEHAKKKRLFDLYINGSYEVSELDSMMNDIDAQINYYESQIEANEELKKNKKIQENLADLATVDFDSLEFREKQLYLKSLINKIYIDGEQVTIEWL
Procedure: (§1) Cell suspension cultures of Nicotiana tobacum BY2 were maintained in MS medium in the dark and subcultured weekly (Nagata, T., T. Nemoto, and S. Hasezawa. 1992. Tobacco BY-2 cell line as the Hela cell in the cell biology of higher plants. Intl. Rev. Cytol., 132:1-30). Protoplasts prepared from 3 day-old cultures were resuspended in 0.4 M mannitol and distributed into 35 mm petri dishes in 1 mL aliquots (˜5×10⁵ cells). Protoplasts were mixed with plasmid DNA and electroporated at 0.56 K Volts for 80μ seconds using a square wave electroporation system with Petripulser electrode (BTX, San Diego, Calif., USA). The cells were transfected with 10 μg for the intramolecular recombination test plasmid and 0 or 10 μg for the recombinase expression plasmid. Following the electroporation, protoplasts were diluted with 1 mL of 2× protoplast culture medium (Watanabe, Y., T. Meshi, and Y. Okada. 1987. Infection of tobacco protoplasts with in vitro transcribed tobacco mosaic virus RNA using an improved electroporation method. Virology, 192:264-272), aliquotted as two 1 mL cultures, and incubated at 27° C. for 17 h. Protoplasts were lysed by freeze thawing and addition of 250 μL 5× passive lysis buffer (Promega, Madison, Wis., USA). Twenty μL of cell extract was assayed for luciferase activity using Dual Luciferase Assay kit on a plate reader equipped with injectors. […]

A118 recombinase [2] = biological target: T2, A118 recombinase; assay: cell_activity; attP x attB recombination with N8, tobacco BY2 protoplasts; also active in mammalian cells
Procedure: as §1

B1: Bxb1 attB (dsDNA)
DNA 1: GGCCGGCTTGTCGACGACGGCGGTCTCCGTCGTCAGGATCATCCGG
DNA 2: CCGGATGATCCTGACGACGGAGACCGCCGTCGTCGACAAGCCGGCC
Bxb1 recombinase
  activity: 66 fold induction

B2: A118 attB (dsDNA)
DNA 1: TTGAGCTAATTAAAACCAGCTGTAACTTTTTCGGATCAAGCTATGAAGGACGCAAAGAGGGAACTAAACACTTAATTGGTGTTACCCATAAGCCAC
DNA 2: GTGGCTTATGGGTAACACCAATTAAGTGTTTAGTTCCCTCTTTGCGTCCTTCATAGCTTGATCCGAAAAAGTTACAGCTGGTTTTAATTAGCTCAA
A118 recombinase [1]
  activity: 364 fold induction

B3: A118 attP (dsDNA)
DNA 1: ACGCTAGTAGCTTGTTTATTTAGATTGTTTAGTTCCTCGTTTTCTCTCGTTGGAAGAAGAAGAAACGAGAAACTAAAATTATAAATAAAAAGTAACCTA
DNA 2: TAGGTTACTTTTTATTTATAATTTTAGTTTCTCGTTTCTTCTTCTTCCAACGAGAGAAAACGAGGAACTAAACAATCTAAATAAACAAGCTACTAGCGT
A118 recombinase [2]
  activity: 364 fold induction
